{"source": "patent US11242370B2", "about": "“Neuregulin-4 compounds and methods of use” (Eli Lilly and Company, priority 2019, dated 2022)", "molecular_target": "T1, human HER2 and HER4 (Homo sapiens, UniProt Q15303)", "T1 construct": "expressed in transfected cells", "assay": "Screening by human HER2-HER4 mediated ERK 1/2 phosphorylation in CHO-hHER2-hHER4 (clone 1H6) cells", "assay_type": "cell-based", "settings": "Fc variants as 293F supernatants", "protocol": "A cell based assay utilizing CHO-K1 cells overexpressing human or rat HER receptors is used to determine activity of NRG4 compounds. CHO-K1 cells (ATCC) are grown in DMEM-F12 3:1 with 5% FBS with 20 mM HEPES, 40 μg/mL L-Proline, lx antibiotics and were split 1:5 every 2-3 days with TripLE Express (Gibco). Cells are transfected with plasmid DNA encoding HER receptors in pairs (hHER2-3, hHER2-4, rHER2-3 and rHER2-4) with Fugene 6 (Promega) according to the manufacturer's instructions. […] Transfected cells are selected with Puromycin (12 ug/ml) and Hygromycin (1 mg/ml) for 3-4 weeks and clonal lines are obtained by limited dilution cloning into 96 well plates. Clonal lines are selected by appropriate gene expression of HER2, HER3 or HER4 by Taqman method. Lines with appropriate receptor expression are confirmed by NRG1 induced phospho-ERK 1/2 responses. Clones are grown up, harvested, aliquoted into cryovials and then frozen under liquid nitrogen for long-term storage.\nA phospho-ERK1/2 activity assay is used to determine potencies of NRG4 compounds. The potency of Examples 1-8 and 10 as compared to WT human NRG1 and/or human NRG4 are analyzed in studies measuring stimulation of human HER2-HER4 mediated ERK 1/2 phosphorylation. This assay comprises a CHO-K1 stable line expressing human HER2 and HER4. CHO-hHER2-hHER4 (clone 1H6) cells are routinely cultured in DMEM: F12(3:1), 5% FBS, 40 μg/mL L-Proline, 10 μg/mL puromycin and 1 mg/mL hygromycin at 37° C., 5% CO2. Cells are washed twice with 1×PBS, dissociated with 0.05% trypsin/[…] EDTA and collected by centrifugation at 300×g for 10 m. Cells are re-suspended in maintenance media. 20,000 cells/well, in 30 μL, are seeded into 384 well Poly-D-Lysine cell culture plates (Greiner, Cat No. 781946). Plates are covered with a manufacturer's lid and moved to a 37° C. tissue culture incubator at 5% CO^2, 80%+ humidity and allowed to adhere. After 24 h, media are removed from the plates and replaced with 30 μL serum-free starvation media (Low glucose DMEM with 0.1% BSA) using a Biomek FX liquid handler. Plates are returned to the incubator for 24 h.\nhFcNRG4 variants, transiently expressed as 293F supernatants, are prepared in starvation media in a clear 384W plate (Greiner, cat no. 781185) as a 4pt 1:8 serial dilution (dose range averaged between 250 pM to 140000 pM). Media are removed from the cell culture plates and the 30 uL/well prepared variants are stamped into the plates using a Biomek FX liquid handler. Plates are sealed with a foil seal and stimulated for 15 minutes at room temperature on an orbital shaker. Cells are then washed once with 50 uL cold PBS. 30 uL lysis buffer is added to the cells and oscillated for 10 m at RT on an orbital shaker.\nDetection of phosphorylation of ERR 1/2 is performed with either an AlphaScreen SureFire phospho-ERK1/2 kit (T202/Y204) (Perkin Elmer, catalog no. TGRES) or an AlphaLISA® SureFire® Ultra™ p ERK1/2 assay kit together with the AlphaScreen Protein. A IgG Detection Kit (Protein-A) (PerkinElmer, catalogue no. 6760617). After lysis of the CHO-K1 cells. 4 μL lysate is transferred to a 384W Alpha Proxiplate (Perkin Elmer, cat no, 6008280) with a 384W Biomek FX. 4 uL positive and negative lysates (Perkin Elmer, TGRES-L) are added to available wells as controls. 5 uL/well acceptor mix (containing anti-phoso-Thr202/Tyr204 antibodies and Protein A conjugated acceptor beads) is added to the plate with a Forumlatrix Mantis. The plate is sealed, spun down for 1 min at 300×g and incubated for 2 hr at room temperature on an orbital shaker. 2 μL/well donor mix (containing strepavidin coated donor beads and biotinylated antibodies to a distal ERK1/2 epitope) is dispensed by Mantis. The plate is sealed, spun down for 1 min at 300×g and incubated for 2 hr at room temperature on an orbital shaker before reading on the Perkin Elmer Envision 2103 Multilabel Reader (HIS Alpha mode, excitation time: 40 ms, total measurement time: 130 ms). […]", "data": [{"molecule": "WT NRG1: wild type human NRG1; native peptide purchased from Reprokine in Tables 7-9; comparator in the screening assays of Tables 4 and 6", "values": [{"measurement": "EC50", "setting": "Table 6", "result": 0.319, "unit": "nM"}]}, {"molecule": "WT NRG4: wild type human NRG4 (SEQ ID NO:1); parental hFcNRG4 in screening (Tables 4-6), native peptide from Reprokine in Tables 7-9 (DHEEPCGPSHKSFCLNGGLCYVIPTIPSPFCRCVENYTGARCEEVFL; listed as Homo sapiens)", "values": [{"measurement": "EC50", "setting": "Table 5, Examples average of two replicates ± standard deviation", "result": 2.53, "unit": "nM"}, {"measurement": "EC50", "setting": "Table 6", "result": 1.3, "unit": "nM"}]}, {"molecule": "Example 10: NRG4 D1G/V22Q/E44K, (GGGGS)3 linker, SEQ ID NO: 19, fused to IgG Fc dimer SEQ ID NO: 6 and 7 (protein) chain 1: GGGGSGGGGSGGGGSGHEEPCGPSHKSFCLNGGLCYQIPTIPSPFCRCVENYTGARCEKVFL chain 2: ECPPCPAPPVAGPSVFLFPPKPKDTLMISRTPEVTCVVVDVSHEDPEVQFNWYVDGVEVHNAKTKPREEQFNSTFRVVSVLTVVHQDWLNGKEYKCKVSNKGLPAPIEKTISKTKGQPREPQVYTLPPSREEMTKNQVSLWCLVKGFYPSDIAVEWESNGQPENNYKTTPPVLDSDGSFFLYSKLTVDKSRWQQGNVFSCSVMHEALHNHYTQKSLSLSPG chain 3: ECPPCPAPPVAGPSVFLFPPKPKDTLMISRTPEVTCVVVDVSHEDPEVQFNWYVDGVEVHNAKTKPREEQFNSTFRVVSVLTVVHQDWLNGKEYKCKVSNKGLPAPIEKTISKTKGQPREPQVYTLPPSREEMTKNQVSLSCAVKGFYPSDIAVEWESNGQPENNYKTTPPVLDSDGSFFLVSKLTVDKSRWQQGNVFSCSVMHEALHNHYTQKSLSLSPG", "values": [{"measurement": "EC50", "setting": "Table 6", "result": 0.245, "unit": "nM"}]}]}
